One molecule from publication PMC5177622, “Multivalent Histone and DNA Engagement by a PHD/BRD/PWWP Triple Reader Cassette Recruits ZMYND8 to K14ac-Rich Chromatin” (Cell Reports, 2016) can be followed below.

The target of this test is Histone H3 acetylated at K14 (endogenous, HEK293), P68431. Briefly: anti-FLAG immunoprecipitation and western blot, quantified. Conditions: chain shown with the change; HEK293 cells transiently transfected; three biological replicates; anti-H3K14ac blot; parent: est. 1.0; read off a plot. In general terms: In western blotting, separated proteins are transferred to a membrane and probed.

B1: 3×FLAG-ZMYND8 full length, wild type, Q9ULU4-13 N228F (protein)
chain: MDISTRSKDPGSAERTAQKRKFPSPPHSSNGHSPQDTSTSPIKKKKKPGLLNSNNKEQSELRHGPFYYMKQPLTTDPVDVVPQDGRNDFYCWVCHREGQVLCCELCPRVYHAKCLRLTSEPEGDWFCPECEKITVAECIETQSKAMTMLTIEQLSYLLKFAIQKMKQPGTDAFQKPVPLEQHPDYAEYIFHPMDLCTLEKNAKKKMYGCTEAFLADAKWILHNCIIYFGGNHKLTQIAKVVIKICEHEMNEIEVCPECYLAACQKRDNWFCEPCSNPHPLVWAKLKGFPFWPAKALRDKDGQVDARFFGQHDRAWVPINNCYLMSKEIPFSVKKTKSIFNSAMQEMEVYVENIRRKFGVFNYSPFRTPYTPNSQYQMLLDPTNPSAGTAKIDKQEKVKLNFDMTASPKILMSKPVLSGGTGRRISLSDMPRSPMSTNSSVHTGSDVEQDAEKKATSSHFSASEESMDFLDKSTASPASTKTGQAGSLSGSPKPFSPQLSAPITTKTDKTSTTGSILNLNLDRSKAEMDLKELSESVQQQSTPVPLISPKRQIRSRFQLNLDKTIESCKAQLGINEISEDVYTAVEHSDSEDSEKSDSSDSEYISDDEQKSKNEPEDTEDKEGCQMDKEPSAVKKKPKPTNPVEIKEELKSTSPASEKADPGAVKDKASPEPEKDFSEKAKPSPHPIKDKLKGKDETDSPTVHLGLDSDSESELVIDLGEDHSGREGRKNKKEPKEPSPKQDVVGKTPPSTTVGSHSPPETPVLTRSSAQTSAAGATATTSTSSTVTVTAPAPAATGSPVKKQRPLLPKETAPAVQRVVWNSSSKFQTSSQKWHMQKMQRQQQQQQQQNQQQQPQSSQGTRYQTRQAVKAVQQKEITQSPSTSTITLVTSTQSSPLVTSSGSMSTLVSSVNADLPIATASADVAADIAKYTSKMMDAIKGTMTEIYNDLSKNTTGSTIAEIRRLRIEIEKLQWLHQQELSEMKHNLELTMAEMRQSLEQERDRLIAEVKKQLELEKQQAVDETKKKQWCANCKKEAIFYCCWNTSYCDYPCQQAHWPEHMKSCTQSATAPQQEADAEVNTETLNKSSQGSSSSTQSAPSETASASKEKETSAEKSKESGSTLDLSGSRETPSSILLGSNQGSDHSRSNKSSWSSSDEKRGSTRSDHNTSTSTKSLLPKESRLDTFWD
On to B1, for which the ratio to parent came to 0.19.
